# From PMC4121272, “Two β-Galactosidases from the Human Isolate Bifidobacterium breve DSM 20213: Molecular Cloning and Expression, Biochemical Characterization and Synthesis of Galacto-Oligosaccharides” (PLoS ONE, 2014)
# B1: β-gal II (Bifidobacterium breve DSM 20213 = JCM 1192) (protein)
# chain: MNTTDDQLKNGDPIVSPSMPTTAWLTDPRVYAVHRLDAHSDHACWSHAPVNGEGSDLGQSLDGEWRVRVETAPTGRFPDGTSDVSPLFAASDFDDSSFSRVQVPSHLETAGLLAPQYVNVQYPWDGHEDPEAPAIPEHGHVAVYRREFDADGEVAQAVREGHPVTLTFQGAATAIYVWLNGSFVGYAEDSFTPSEFDVTDAIKMEGNVLAVACYEYSSASWLEDQDFWRLHGLFRSVELNARPSAHVADIHADTDWDPATSRGSLSLDILVDGTPNAATADLVLRDKNGTTVWHTSTEATGTLHAEAEIDGASPWSAERPDLYTLSIALLDADGRILEIARTRIGFRRVSIEDGILKLNGKRLVFRGVNRHEFDCRRGRAITEEDMLWDIRFMKRHNINAVRTSHYPNQSRWYELCDEYGIYLIDETNLETHGSWNSPGDIPVGTSVPGDDEAWLGACIDRLDSMIMRDRNHPSVLIWSLGNESYAGEVLKAMSAHAHRLDPGRPVHYEGVNWNHAYDEISDFESRMYAKPAEIRDWLEHGDERGEASKPFVSCEYMHAMGNSCGGLSEFIDLERYERYSGGFIWDYIDQGLVQRLPDGCERLSVGGDWGDRPTDYEFVGNGIVFADRTPSPKAQEVKQLYSPVKLTPDGHGVTIENRNLFASTDGYVFAARLLEDGREIWHADYRFDVAAGDTQHHDIAFPDIDSDEGTREVTYEVDLLLAEATAWAPAGYELAFGQLTDTLNPEGDITGNNQDDGRATVTLSRWNAGIRRDDEEILMSRTQGGIVSWKRNGREMVIRRPEIVTFRPLTDNDRGNRSGYDRAAWFAAGRYAVVTDTSITQSDDGGLTAAYRYELADPDHTPVSVTYRVTPGMRMQLTVEYPGNAAGAASLPAFGIEWELPGEYQHLRYYGTGPEETYRDRKQGGKLGIWDTTSEASTAPYLMVQETGSHEDVRWLEATDIQGHGLRVTQRGDRHFTASLLPWNTYTIEAARRHEDLPAPRHNYLRLLAAQMGVGGDDSWGAPVHTAYQLPADRPLTLDVNLELI
# notes: full length, C-terminal His6 tag kept (pET-21a), E. coli T7 Express with GroEL/GroES, IMAC; calculated 116,594 Da; homodimer 211 kDa; GH2; N-terminus from primer MNTTDDQ, C-terminus before tag DVNLELI
# B2: β-gal I (Bifidobacterium breve DSM 20213 = JCM 1192) (protein)
# chain: MQGKAKTIMTNLQSAQQFSQAWLTDPRVFAVNRLAAHSSHKFYDHAPQCGEAMDLKQSLDGQWRVQMVDLADLADNELAEAAFAQPGYDAAGFSPIEVPSALETKGFLNHQYVNQQYPWSGHESPVAPDVPKHNHVALYRHEFSLEPKAAAVLEANKTAADDTAKRRVTLTFQGAATAIAVWLNGAFIGYAEDSFTPSEFDVTDVLRDGVNTLAVACFEFSSASWLEDQDFWRLHGIFRSVELEAQPLVHVNDLRVLADYDHTTGEGSLDVVALVRNAGTAAAVAATVLDAAGNTVWHSKLTAGADAETLTVKANVGKVNPWSAEEPTLYTLQVVATDAAGQVIEAALQRIGFRHFAIEDGLMKLNGKRIVFKGVDRHEFDARTGRTIAEADMIEDIHSFKRLNINAVRTSHYPNETRWYELCDEYGIYVLDETNLETHGSWTDPGDVFQPARAIPGSKDEWRAACVDRTASMVRRDYNHPSVVIWSLGNEAFGGDVFYSMRDFVHENDPFRPVHYEGTFNDPEFSAATDIMSRMYAKPDEIVKLYLGEDGKKPYISCEYSHSMGNSTGGLHLYTELERYPLYQGGFIWDYVDQALWQDCGDGTERLAYGGDFEDRPNDYEFSGDGVMFADRTPSPKAQEVKQLYANVKLVPDESGVTITNDNLFVSTASSLFTARVLVDGVERWHANYRFDVPAGETVREPIAFPKVTDLVALSGSAEVTYEVDQRLAEATDWAPAGYELTFGQYVAAVSFDDGAADAVVAGDAEVAADGFNAGIHTDFGEVLLSKTQGGMVSFKRDGREMVIRRPNLTTFRALTDNDRGNGSGFERAQWMAAGRYARVTDTSVEETADGKGLKATYSYELADAKHTPVTVHYEVDAALRVHLTVEYPGEADAATLPAFGLEWILPKQYDRLRFYGLGPEETYADRLHGAKLGVFSRTAAEDCAPYLLPQETGNHEQVRWAEITDEYGHGMRVTAAGGTRFATSLLPYSSLMLEDALHQNELPKPRHTFLRLLAAQMGVGGDDTWGAPVHDEFQVPADQPLKLDVTLELI
# notes: full length, C-terminal His6 tag kept (pET-21a), E. coli T7 Express with GroEL/GroES, IMAC; calculated 116,127 Da; homodimer 220 kDa; GH2; N-terminus from primer MQGKAKT, C-terminus before tag DVTLELI
# Substrate: O=[N+]([O-])c1ccccc1O[C@@H]1O[C@H](CO)[C@H](O)[C@H](O)[C@H]1O
# Assay: purified protein
# Format: biochemical, Bifidobacterium breve
# Conditions: 50 mM sodium phosphate pH 6.5, 30°C
Protein,Km,Vmax,kcat,kcat/Km
B1,670 ± 70 µM,188 µmol/min/mg,364 ± 6 s⁻¹,543000 ± 65000 M⁻¹ s⁻¹
B2,1300 ± 100 µM,486 µmol/min/mg,939 ± 7 s⁻¹,722000 ± 66000 M⁻¹ s⁻¹
